In patent US20160159921A1:

Experiments:
FcγRIIIa (F) variant = FcγRIIIa (F) variant (UniProt P08637); experiment: SPR (ProteOn XPR36), antibody captured on immobilized HER-2, FcγR as analyte, 1:1 Langmuir fit
FcγRIIb = FcγRIIb (UniProt P31994); experiment: as above
UniProt P31994, sequence (P31994 43-217 limits assumed): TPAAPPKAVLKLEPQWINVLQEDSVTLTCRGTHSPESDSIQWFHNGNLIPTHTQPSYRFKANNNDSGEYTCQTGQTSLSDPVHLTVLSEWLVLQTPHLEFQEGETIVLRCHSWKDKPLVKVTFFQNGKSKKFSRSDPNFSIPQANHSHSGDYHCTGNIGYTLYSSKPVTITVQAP

UniProt P08637, sequence (P08637 17-208 limits assumed, change not shown): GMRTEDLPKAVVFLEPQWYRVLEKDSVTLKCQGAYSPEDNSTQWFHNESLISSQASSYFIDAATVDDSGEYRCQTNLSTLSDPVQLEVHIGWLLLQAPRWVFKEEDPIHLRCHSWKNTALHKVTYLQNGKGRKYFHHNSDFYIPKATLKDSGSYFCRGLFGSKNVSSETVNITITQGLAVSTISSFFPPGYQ

Kd (FcγRIIIa (F) variant): 0.429 µM | Kd (FcγRIIb): 7.63 µM
Substance: Trastuzumab variant G237F/S298A/A330L/I332E (antibody)
